# T1: malic semialdehyde dehydrogenase (MSA-DH) (Acinetobacter baumannii, UniProt D0C9N7)
# T1 construct: gene HMPREF0010_01350; N-terminal His-thioredoxin fusion, tetramer
# T1 sequence (D0C9N7 1-483): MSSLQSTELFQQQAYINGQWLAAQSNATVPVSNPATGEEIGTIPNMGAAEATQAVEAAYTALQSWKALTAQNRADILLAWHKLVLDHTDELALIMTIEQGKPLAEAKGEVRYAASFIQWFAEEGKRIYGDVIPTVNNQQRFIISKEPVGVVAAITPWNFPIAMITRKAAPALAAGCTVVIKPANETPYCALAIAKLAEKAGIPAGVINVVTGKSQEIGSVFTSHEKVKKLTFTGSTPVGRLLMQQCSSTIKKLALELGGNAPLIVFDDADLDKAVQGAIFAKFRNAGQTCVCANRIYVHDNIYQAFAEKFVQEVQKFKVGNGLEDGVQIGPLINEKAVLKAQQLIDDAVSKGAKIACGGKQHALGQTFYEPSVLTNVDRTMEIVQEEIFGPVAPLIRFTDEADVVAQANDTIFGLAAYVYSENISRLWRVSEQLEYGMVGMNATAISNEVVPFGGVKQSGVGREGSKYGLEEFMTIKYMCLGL
# T2: D-malate dehydrogenase (MDH) (Acinetobacter baumannii, UniProt A0ABX6CCN1)
# T2 construct: gene dmlA; N-terminal His-tag fusion, tetramer
# T2 sequence (A0ABX6CCN1 1-370): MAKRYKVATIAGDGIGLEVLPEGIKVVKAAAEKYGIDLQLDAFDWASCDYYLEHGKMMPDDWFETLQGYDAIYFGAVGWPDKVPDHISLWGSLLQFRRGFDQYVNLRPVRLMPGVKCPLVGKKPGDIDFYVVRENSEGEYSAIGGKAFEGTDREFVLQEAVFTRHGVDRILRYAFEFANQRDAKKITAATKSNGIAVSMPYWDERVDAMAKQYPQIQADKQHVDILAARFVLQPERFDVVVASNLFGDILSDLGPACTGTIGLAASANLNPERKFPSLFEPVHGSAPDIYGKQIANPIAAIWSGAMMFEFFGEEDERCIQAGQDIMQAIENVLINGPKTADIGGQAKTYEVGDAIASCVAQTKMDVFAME
# B1: malic semialdehyde dehydrogenase (MSA-DH) (Acinetobacter baumannii ATCC 19606 = CIP 70.34 = JCM 6841) (protein)
# chain: T1 sequence (D0C9N7 1-483)
# notes: N-terminal His-thioredoxin fusion, tetramer
# B2: D-malate dehydrogenase (MDH) (Acinetobacter baumannii ATCC 19606 = CIP 70.34 = JCM 6841) (protein)
# chain: T2 sequence (A0ABX6CCN1 1-370)
# notes: N-terminal His-tag fusion, tetramer
# Legend:
# [1] = target: malic semialdehyde dehydrogenase (MSA-DH) from A. baumannii, N-terminal His-thioredoxin fusion (Acinetobacter baumannii ATCC 19606); experiment: SEC; analytical size exclusion chromatography, Superdex 200 increase 5/150 GL, 20 mM HEPES-NaOH pH 7.5, 150 mM NaCl, 0.45 mL/min, 50 uL of 3 mg/mL protein injected, calibrated with protein standards
# [2] = target: malic semialdehyde dehydrogenase (MSA-DH) from A. baumannii, N-terminal His-thioredoxin fusion (Acinetobacter baumannii ATCC 19606); experiment: mass photometry; Refeyn TwoMP, 25 nM protein in PBS, 60 s movies, calibrated against NativeMark standard
# [3] = target: malic semialdehyde dehydrogenase (MSA-DH) from A. baumannii, N-terminal His-thioredoxin fusion (Acinetobacter baumannii ATCC 19606); experiment: crystal structure; X-ray, 2.6 A, space group P212121, 12 chains (three tetramers) in the asymmetric unit; protein at 40 mg/mL supplemented with 7 mM D-malate
# [4] = target: D-malate dehydrogenase (MDH) from A. baumannii, N-terminal His-tag fusion (Acinetobacter baumannii ATCC 19606); experiment: mass photometry; Refeyn TwoMP, 25 nM protein in PBS, 60 s movies, calibrated against NativeMark standard
# [5] = target: T3, carnitine monooxygenase oxygenase component CntA (Acinetobacter baumannii, UniProt D0C9N6); experiment: MBTH aldehyde formation assay and L-carnitine depletion assay (specific activity); format: biochemical
# T3 construct: CntA after on-column cleavage of GST tag; with CntB (reductase)
# [6] = target: T1, malic semialdehyde dehydrogenase (MSA-DH); experiment: MSA depletion (MBTH) and NADH formation assays with […] NAD+; format: biochemical
# [7] = target: T3, carnitine monooxygenase oxygenase component CntA; experiment: MBTH aldehyde formation assay (specific activity); format: biochemical
# [8] = target: T2, D-malate dehydrogenase (MDH); experiment: spectroscopic NADH formation assay ([…] nm) with D-malate, varied inhibitor concentrations; format: biochemical
# purified protein [9] = substrate: O=C[C@H](O)CC(=O)O; experiment: purified protein; format: biochemical, Acinetobacter baumannii; details: NAD+ or NADP+ proposed from model: Arg166, Arg284, Ser447 bind the carboxylate; catalytic Cys290 (covalent hemithioacetal intermediate) and Glu256
# purified protein [10] = substrate: O=C(O)C[C@@H](O)C(=O)O; experiment: purified protein; format: biochemical, Acinetobacter baumannii; details: NAD+; Mg2+ or Mn2+
molecule,measurement,setting,value
"malic semialdehyde dehydrogenase (MSA-DH) from A. baumannii, N-terminal His-thioredoxin fusion (enzyme)",stoichiometry N,[1],4
same,stoichiometry N,[2],4
same,stoichiometry N,[3],4
"D-malate dehydrogenase (MDH) from A. baumannii, N-terminal His-tag fusion (enzyme)",stoichiometry N,[4],4
C[N+](C)(C)C[C@H](O)CC(=O)[O-] [L-carnitine],MBTH aldehyde formation assay and L-carnitine depletion assay (specific activity),[5],2.8 ± 0.2 µmol/min/mg
NC(=O)c1ccc[n+]([C@@H]2O[C@H](COP(=O)([O-])OP(=O)(O)OC[C@H]3O[C@@H](n4cnc5c(N)ncnc54)[C@H](O)[C@@H]3O)[C@@H](O)[C@H]2O)c1 [NAD^+],MSA depletion (MBTH) and NADH formation assays with 2 mM NAD+,[6],MSA-DH can use NAD^+ or NADP^+ as a cofactor for the oxidation of the MSA substrate
C[N+](C)(C)CCCC(=O)[O-] [γ-butyrobetaine],MBTH aldehyde formation assay (specific activity),[7],2.1 ± 0.2 µmol/min/mg
O=C(O)C(O)C(O)C(=O)O (stereo not drawn) [meso-tartrate],Ki,[8],320 ± 80 µM
B1,Km,purified protein [9],2.6 ± 0.14 mM
B2,Km,purified protein [10],2.1 ± 0.2 mM

# — paper PMC11353897, “Biochemical and structural elucidation of the L-carnitine degradation pathway of the human pathogen Acinetobacter baumannii” (Frontiers in Microbiology, 2024)
